Patent US20210145935A1

Legend:
[1] = target: H3N2 pseudotyped lentiviral particles (H3 from A/Denmark/70/03, N2 from A/Texas/50/2012) (influenza A virus H3N2 A/Denmark/70/03; influenza A virus H3N2 A/Texas/50/2012); assay: cell-based or functional assay
[2] = target: H1N1 pseudotyped lentiviral particles (H1 and N1 from swine H1N1 A/California/04/09) (influenza A virus H1N1 A/California/04/09); assay: cell-based or functional assay

B1: human complement factor H purified from human plasma, P08603 19-1231 (protein)
chain: EDCNELPPRRNTEILTGSWSDQTYPEGTQAIYKCRPGYRSLGNVIMVCRKGEWVALNPLRKCQKRPCGHPGDTPFGTFTLTGGNVFEYGVKAVYTCNEGYQLLGEINYRECDTDGWTNDIPICEVVKCLPVTAPENGKIVSSAMEPDREYHFGQAVRFVCNSGYKIEGDEEMHCSDDGFWSKEKPKCVEISCKSPDVINGSPISQKIIYKENERFQYKCNMGYEYSERGDAVCTESGWRPLPSCEEKSCDNPYIPNGDYSPLRIKHRTGDEITYQCRNGFYPATRGNTAKCTSTGWIPAPRCTLKPCDYPDIKHGGLYHENMRRPYFPVAVGKYYSYYCDEHFETPSGSYWDHIHCTQDGWSPAVPCLRKCYFPYLENGYNQNYGRKFVQGKSIDVACHPGYALPKAQTTVTCMENGWSPTPRCIRVKTCSKSSIDIENGFISESQYTYALKEKAKYQCKLGYVTADGETSGSITCGKDGWSAQPTCIKSCDIPVFMNARTKNDFTWFKLNDTLDYECHDGYESNTGSTTGSIVCGYNGWSDLPICYERECELPKIDVHLVPDRKKDQYKVGEVLKFSCKPGFTIVGPNSVQCYHFGLSPDLPICKEQVQSCGPPPELLNGNVKEKTKEEYGHSEVVEYYCNPRFLMKGPNKIQCVDGEWTTLPVCIVEESTCGDIPELEHGWAQLSSPPYYYGDSVEFNCSESFTMIGHRSITCIHGVWTQLPQCVAIDKLKKCKSSNLIILEEHLKNKKEFDHNSNIRYRCRGKEGWIHTVCINGRWDPEVNCSMAQIQLCPPPPQIPNSHNMTTTLNYRDGEKVSVLCQENYLIQEGEEITCKDGRWQSIPLCVEKIPCSQPPQIEHGTINSSRSSQESYAHGTKLSYTCEGGFRISEENETTCYMGKWSSPPQCEGLPCKSPPEISHGVVAHMSDSYQYGEEVTYKCFEGFGIDGPAIAKCLGEKWSHPPSCIKTDCLSLPSFENAIPMGEKKDVYKAGEQVTYTCATYYKMDGASNVTCINSRWTGRPTCRDTSCVNPPTVQNAYIVSRQMSKYPSGERVRYQCRSPYEMFGDEEVMCLNGNWTEPPQCKDSTGKCGPPPPIDNGDITSFPLSVYAPASSVEYQCQNLYQLEGNKRITCRNGQWSEPPKCLHPCVISREIMENYNIALRWTAKQKLYSRTGESVEFVCKRGYRLSSRSHTLRTTCWDGKLEYPTCAKR
- luciferase reporter activity of transduced MDCK cells, 40 µg/ml protein [1]: 50 % increase
- luciferase reporter activity of transduced MDCK cells, 40 µg/ml protein [2]: 25 % reduction
